The supplement of paper PMC12764529
± gives the half width of the 95% confidence interval.

Assay: folding stability dG unfold (combined trypsin and chymotrypsin); higher = more stable
How it was run: (§1)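 Digests were run with trypsin and chymotrypsin at 11 concentrations in threefold dilutions, plus a no-protease condition, on designed mini-proteins in a PA-tagged cDNA display construct. The mini-proteins were under 80 residues, had no cysteine, and were kept only when AlphaFold2 dimer inter-PAE was above 15. After sequencing, Bayesian fitting of the counts gave K50, from which unfolding free energy was derived against a sequence-predicted unfolded-state K50 and a shared folded-state K50, per protease or combined.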

| Sequence | folding stability dG unfold |
| --- | --- |
| SAGGSAGGMTVTIELPGSTYTVELPSSVKSVSELKVLEDGTLVLTFPSTGTTVTVPIPPPGSHHSAGGSAGG [r6_370_JUSTAS] | 1.01 ± 0.11 kcal/mol |
| SAGGASVDRELTDPVTGDKIEVTITRLPDGSWLIEVTVTDAEGKTTKYPKTFPPGSYTPEDTIDFTKDSAGG [r13_959_JUSTAS] | 2.1 ± 0.16 kcal/mol |
| SAGGPEIVKLDFTLDPNGNLVFTFELKDGTKYEIKINPENPTIEIKEIEKIEPKPIPEDDPELLKEKSAGGS [r16_482_TrMRF] | 2.49 ± 0.78 kcal/mol |
| SAGGSAGGSAGKKPEKYILIKVKKEDVEKLLEAIKKLLPPGAEIVKIEKTPEYVYIVVKLSAGGSAGGSAGG [r11_698_TrROS_Hall] | 4.21 ± 0.086 kcal/mol |
| SAGMATTTELPNGFLTTYEDGTTSFIPAEPPEVPVTTVPVTSPEEAAAAVAAAGLSVEVVTADSVTAPASAG [r5_328_JUSTAS] | 1.63 ± 0.07 kcal/mol |
| SPRIEVRKLPDGTELVRIEIPTPEGNPVVVEATVTYDPETGTVTQEVTLTDPNVPPEVKALLESFTLTVPSA [r9_715_JUSTAS] | 1.4 ± 0.042 kcal/mol |
| SAGSTAELVGHPDGVELRTELRGEELVFVLPAPKDVLVVAYDPATGALVLGVPVGDRVLVLVRPPPHPSAGG [r19_384_TrMRF] | 3.53 ± 0.23 kcal/mol |
| SAGGMKFKIVKIEVKEDKVTIEIEAETEEELEEAKKLAEELAKKLGLSKEKIEVKIELRPPPEEEEEESAGG [r13_430_TrROS_Hall] | 2.55 ± 0.52 kcal/mol |
| SAGGSAGGMLSPEEAEAIARALEAAGRPVTELVVTEHPEGTATVTLTVRYPDGSTETLPLSLPASAGGSAGG [r6_762_JUSTAS] | 1.05 ± 0.2 kcal/mol |
| SAGGSAGGSAGDPGERPYVEVTVRIPITPGLEIPWWIPPENMPPEDAEKFAQDIAKEFLDSAGGSAGGSAGG [r11_409_TrROS] | 0.426 ± 0.11 kcal/mol |
| SAGGGMTTTTVTVTLDVPPDAGEEEVERLAEEIAAELKAAHPNITVTVEKITIDEKNATFTITVTTPGSAGG [r13_805_JUSTAS] | 3.03 ± 0.058 kcal/mol |
| SAGGSAAPVPVGAELAAAAPGAAVTVELPDGVTATVTRVGDTLVVDVTRFSEPPLPVSSATATLPLSAGGSA [r15_558_JUSTAS] | 0.409 ± 0.05 kcal/mol |
| SAGMVIAIKPGEPRILVSGLPPELVRRIAEELGAPDVVPVEPGVPAWTALENHPDPAAFLVIPPELALSAGG [r19_270_TrMRF] | 0.0501 ± 0.15 kcal/mol |
| SAGGMEVTLRITAEGPEQLEKIQEILDELDVEEVNPTENEVEFRFPGPEPLAKLKEIAEELGLKVEGSAGGS [r16_88_TrMRF] | -0.377 ± 0.25 kcal/mol |
| SAGGSAGGSAGGMFYIKNEKGEVFPFTSLEEFLKQLEEKTGKPVKLNNIVIYPAAPHSLSAGGSAGGSAGGS [r10_62_TrMRF] | 1.7 ± 0.27 kcal/mol |
| SAGPGHELKIDIERDPGNGIIKLSITYPNGIKYEMLIFRNPDNGKWFIFINIERDPGRIKIDIGIFPLSAGG [r19_394_TrROS] | 4.7 ± 0.2 kcal/mol |
| SAGGSGVPLKITKVEVVGDKVVLTFEVPESLGTLKLNLTFELGGKPVEVEAEFDPETKYAVVVVGGSAGGSA [r2_261_TrMRF] | 2.49 ± 0.092 kcal/mol |
| SAGMKKGDKFTVEFDLDPETRAEVEALLAAPGFAAEFDPSTGRLTLTLPSEIIDEVKKFPHIKKITKISAGG [r19_212_JUSTAS] | 1.68 ± 0.083 kcal/mol |
| SAGGSAETVVVRIEVRDPETGETLELEIEVRRDMTEEELRELAEELARALKEAGYEVRVEVVRLPPSAGGSA [r15_268_TrROS_Hall] | 2.61 ± 0.091 kcal/mol |
| SAGGMTVTIPYKGSPELAERVVEAIQEAFPEVRVEEVVVEPGDPTNITITVRFDNDVPASAIAEVLSSAGGS [r16_180_JUSTAS] | 1.85 ± 0.071 kcal/mol |
| SSVEELSPEQRREQLRELLRQIREARREGDPEEERRLLEELRRLIEQLPDEEREEVRRLLEELGLPVEELSA [r9_182_TrROS_Hall] | 4.05 ± 0.19 kcal/mol |

Assay: folding stability dG unfold from chymotrypsin proteolysis; higher = more stable
How it was run: as §1

| Sequence | folding stability dG unfold |
| --- | --- |
| SAGGSAGGMKVTISSKGLPATITYYDPRNGTSTTVPINGDPEAAVAALKEATGLDVTDVTVTVESAGGSAGG [r6_763_JUSTAS] | 0.52 ± 0.11 kcal/mol |
| SAGGSAGGSAGVSTTPDGVLVIKVKDPNTGKYTEIKVPTSRPEEAEKLKEKALEEGLELESAGGSAGGSAGG [r11_538_JUSTAS] | 1.49 ± 0.022 kcal/mol |
| SAGMLPPEETVTLTLTFPASSPLSLEEILARTPDVEVLSLKREALPDDTVRLTITVRPDHVARVRAALASAG [r5_554_JUSTAS] | 4.63 ± 0.06 kcal/mol |
| SAGGSAGGSAGPPPFKLKIDEMEMADDMFRIKLTIEDPNGEVTVDYWIGNQPFKLRIKPDSAGGSAGGSAGG [r17_45_TrROS] | 2.39 ± 0.17 kcal/mol |
| SAGGSAGGSAKEIDFKFRSPGNGEEFPFRVEIDEFDPDDGPLLIKVEMPNGKPHTFPADDILSAGGSAGGSA [r18_334_TrROS] | 0.76 ± 0.15 kcal/mol |
| SAGKSVKLSISVNPDNNSITITLEVEFKPDEKINIPAKFYLKDKEFNANYSVTKTPDGKAIATFTIELDSAG [r5_596_TrMRF] | 4.57 ± 0.23 kcal/mol |
| SEVVLEVKVEVRVKRNENGELEVEVKVEVKLVELEPPEPRIELSEEEREKLKEEAEKLGLELTDEELEALSA [r9_487_TrROS_Hall] | 1.87 ± 0.15 kcal/mol |
| SAGMEKKTFTFPTRTVLVVRGPDGTVLVVVDDPDGDPEVLTPDGTPVPYVDLPNGQRLYRFPAALFEKVSAG [r5_457_TrMRF] | 3.182 ± 0.023 kcal/mol |
| SAGTAEEAKELARFFARELAPRNGMDVEIPDIKVETDPENGWIRITVEITFRWPHGRKQKHPFTIQIPVSAG [r5_381_TrROS] | 1.25 ± 0.096 kcal/mol |
| SAGGMKIEIVEVTPTRIRIRLENGEVLTLEEIRKLLEEEGLPEPMTVDQIAELLRKRGLKITEIEIVPSAGG [r13_610_TrROS_Hall] | 3.274 ± 0.025 kcal/mol |
| SAGGSAGGSASPIHATVSVDPETGTYTVHYPDGSTKTITGLSPEEVAALAKEMGIDEITLESAGGSAGGSAG [r3_78_JUSTAS] | 2.64 ± 0.034 kcal/mol |
| SAGGSAGGKLVVLLVRRPDGSLALRVTDAENPAEALEAARRNGMEALPLEVDDLEEFLEAIGLGSAGGSAGG [r6_495_TrMRF] | 2.65 ± 0.09 kcal/mol |
| SAGKALSPEELARYVREKYGLPADAPITIEEVPGKYTLSLPDLRVEVTVTDDTTTVTLRPPDPGPEAALSAG [r5_190_JUSTAS] | 1.57 ± 0.16 kcal/mol |
| SAGGSAGGSAKYKPIGELEFEFENGIRLRVTFYEGEGEKIAIVEIEIPEPSLEEAIKILESSAGGSAGGSAG [r3_158_TrMRF] | 2.79 ± 0.037 kcal/mol |
| SAGGSAGGSAGGMKTIVVPKDELEKLKEELEKKGKKVETSEDGTWTVDGKPVKVVVEPGSAGGSAGGSAGGS [r10_930_JUSTAS] | 0.731 ± 0.032 kcal/mol |
| SAGGSAGGKEPFTVDKVEATVPFPGADGTEGVVLVTLPNGEKRLIPASELPLENLQPDGTVSSASAGGSAGG [r6_609_TrMRF] | 0.328 ± 0.037 kcal/mol |
| SMRVRPDGYAVVIEVRVTEDAGPPPPPFEAIRDPETDRVTVVAGATPEEIVAFAEFPGVEVERIEVIPLLSA [r9_827_TrMRF] | 0.675 ± 0.086 kcal/mol |
| SAGGSAGGSAGAGSWKDALKASSNETVTIPLPPTGKTLKITFSKSDDGSWKVDIEVFPAESAGGSAGGSAGG [r11_13_TrMRF] | 2.18 ± 0.079 kcal/mol |
| SAGGPGMKMEPIAQIEFPGGRKITIHRMEMPNGNKMVNVNIMNPNGKTKTVMVPMGDIDEAIDALKLSAGGS [r16_588_TrROS] | 1.04 ± 0.07 kcal/mol |
| SAGGSAGGSAMKIEIEKTEDTIKVRIKRKDGKEIEIEIPKENMSLEEIKKLAEELGIEKVEPSAGGSAGGSA [r18_83_TrROS_Hall] | 1.63 ± 0.073 kcal/mol |
| SAGGMTVKITIEVEEPGKTAEELAEELARELEKAGFKVEVVSVEVEEVDGRLIVTIEVKVDSEEALKASAGG [r13_979_TrROS_Hall] | 2.55 ± 0.077 kcal/mol |

| Sequence | folding stability dG unfold |
| --- | --- |
| SAGGSAGGMTVTIELPGSTYTVELPSSVKSVSELKVLEDGTLVLTFPSTGTTVTVPIPPPGSHHSAGGSAGG [r6_370_JUSTAS] | 0.878 ± 0.13 kcal/mol |
| SAGGASVDRELTDPVTGDKIEVTITRLPDGSWLIEVTVTDAEGKTTKYPKTFPPGSYTPEDTIDFTKDSAGG [r13_959_JUSTAS] | 2.14 ± 0.12 kcal/mol |
| SAGGPEIVKLDFTLDPNGNLVFTFELKDGTKYEIKINPENPTIEIKEIEKIEPKPIPEDDPELLKEKSAGGS [r16_482_TrMRF] | 3.24 ± 0.059 kcal/mol |
| SAGGSAGGSAGKKPEKYILIKVKKEDVEKLLEAIKKLLPPGAEIVKIEKTPEYVYIVVKLSAGGSAGGSAGG [r11_698_TrROS_Hall] | 4.38 ± 0.07 kcal/mol |
| SAGMATTTELPNGFLTTYEDGTTSFIPAEPPEVPVTTVPVTSPEEAAAAVAAAGLSVEVVTADSVTAPASAG [r5_328_JUSTAS] | 1.2 ± 0.027 kcal/mol |
| SPRIEVRKLPDGTELVRIEIPTPEGNPVVVEATVTYDPETGTVTQEVTLTDPNVPPEVKALLESFTLTVPSA [r9_715_JUSTAS] | 1.54 ± 0.028 kcal/mol |
| SAGSTAELVGHPDGVELRTELRGEELVFVLPAPKDVLVVAYDPATGALVLGVPVGDRVLVLVRPPPHPSAGG [r19_384_TrMRF] | 3.88 ± 0.099 kcal/mol |
| SAGGMKFKIVKIEVKEDKVTIEIEAETEEELEEAKKLAEELAKKLGLSKEKIEVKIELRPPPEEEEEESAGG [r13_430_TrROS_Hall] | 2.19 ± 0.15 kcal/mol |
| SAGGSAGGMLSPEEAEAIARALEAAGRPVTELVVTEHPEGTATVTLTVRYPDGSTETLPLSLPASAGGSAGG [r6_762_JUSTAS] | 0.782 ± 0.1 kcal/mol |
| SAGGSAGGSAGDPGERPYVEVTVRIPITPGLEIPWWIPPENMPPEDAEKFAQDIAKEFLDSAGGSAGGSAGG [r11_409_TrROS] | -0.482 ± 0.17 kcal/mol |
| SAGGGMTTTTVTVTLDVPPDAGEEEVERLAEEIAAELKAAHPNITVTVEKITIDEKNATFTITVTTPGSAGG [r13_805_JUSTAS] | 2.928 ± 0.029 kcal/mol |
| SAGGSAAPVPVGAELAAAAPGAAVTVELPDGVTATVTRVGDTLVVDVTRFSEPPLPVSSATATLPLSAGGSA [r15_558_JUSTAS] | 0.638 ± 0.028 kcal/mol |
| SAGMVIAIKPGEPRILVSGLPPELVRRIAEELGAPDVVPVEPGVPAWTALENHPDPAAFLVIPPELALSAGG [r19_270_TrMRF] | 0.393 ± 0.12 kcal/mol |
| SAGGMEVTLRITAEGPEQLEKIQEILDELDVEEVNPTENEVEFRFPGPEPLAKLKEIAEELGLKVEGSAGGS [r16_88_TrMRF] | -0.635 ± 0.28 kcal/mol |
| SAGGSAGGSAGGMFYIKNEKGEVFPFTSLEEFLKQLEEKTGKPVKLNNIVIYPAAPHSLSAGGSAGGSAGGS [r10_62_TrMRF] | 1.81 ± 0.15 kcal/mol |
| SAGPGHELKIDIERDPGNGIIKLSITYPNGIKYEMLIFRNPDNGKWFIFINIERDPGRIKIDIGIFPLSAGG [r19_394_TrROS] | 5.05 ± 0.13 kcal/mol |
| SAGGSGVPLKITKVEVVGDKVVLTFEVPESLGTLKLNLTFELGGKPVEVEAEFDPETKYAVVVVGGSAGGSA [r2_261_TrMRF] | 2.52 ± 0.061 kcal/mol |
| SAGMKKGDKFTVEFDLDPETRAEVEALLAAPGFAAEFDPSTGRLTLTLPSEIIDEVKKFPHIKKITKISAGG [r19_212_JUSTAS] | 1.79 ± 0.044 kcal/mol |
| SAGGSAETVVVRIEVRDPETGETLELEIEVRRDMTEEELRELAEELARALKEAGYEVRVEVVRLPPSAGGSA [r15_268_TrROS_Hall] | 2.26 ± 0.11 kcal/mol |
| SAGGMTVTIPYKGSPELAERVVEAIQEAFPEVRVEEVVVEPGDPTNITITVRFDNDVPASAIAEVLSSAGGS [r16_180_JUSTAS] | 1.55 ± 0.035 kcal/mol |
| SSVEELSPEQRREQLRELLRQIREARREGDPEEERRLLEELRRLIEQLPDEEREEVRRLLEELGLPVEELSA [r9_182_TrROS_Hall] | 3.72 ± 0.19 kcal/mol |
